Laboratory results reported in CN117700537A.

Target: 非洲马瘟病毒VP7重组蛋白 (AHSV VP7重组蛋白, 原核表达) (African horse sickness virus (非洲马瘟病毒))
Test: indirect ELISA, negative control on coated VP7 recombinant protein (0.5 μg/mL)

阴性对照 (阴性抗体, 表2) (antibody)
OD450: 0.0655 OD450
